Measured values published in the supplement of paper PMC12042874.
± gives the uncertainty stated by the source.

Experiment: amyloid nucleation score (Sup35N fusion, yeast selection) (log enrichment); library NNK3; higher = more nucleation; inactive = no reads after selection
Method in brief: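 In psi-negative yeast, Sup35N fusions carrying peptides of 20 random codons were induced with 100 μM copper sulfate for 24 hours. The cells then grew 7 days at 30°C on medium lacking adenine and uracil, and plasmid inserts from input and output were Illumina-sequenced, excluding sequences with under 100 input reads. Nucleation score is the DiMSum log enrichment of output over input reads, centred on the mode score of non-aggregating sequences.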

Substance	amyloid nucleation score
AAEDRSWSHPATQFLLVVRQ	inactive
AALSSTW	inactive
AAPMS	inactive
AAYGELL	inactive
ACAFS	inactive
ACFVKY	inactive
ACKSGHLNSHKNGYYV	inactive
ACLYY	inactive
ACSVHFFHARW	1.49 ± 0.14
ACYAAQCWSNF	inactive
ADFGLHRNCRRGCLGMFFL	inactive
ADPDVR	inactive
ADVCNAFRVISICLYAIIVL	inactive
ADVDCFTVNLVYSRYAFVTT	inactive
AEIVCICV	1.11 ± 0.17
AEMDRRATFTGDHGDGFAIV	inactive
AEVHDDHPMGSDAHIYGTGG	inactive
AEYQPFRQRHVL	inactive
AFIFGCHNGTFKYGKYTCRG	inactive
AFINMMWNSTMDLCRPFLPT	0.698 ± 0.27
AFKNYVPMFTW	-0.335 ± 0.73
AFMNWVARRKTRWGGLYGGN	inactive
AFNHCETDRLTCL	inactive
AFRSTSQYVY	inactive

Substance	amyloid nucleation score
AFSDGTLSLTSKVRLGDS	inactive
AFVGRWYCGFVASVIFEMQG	0.069 ± 0.47
AFVSPYR	inactive
AFYVVLTNTVYVGWLQE	inactive
AFYYRVELVYLAC	inactive
AGAGLNKLSVLTVTTLLMIL	inactive
AGAVVDV	inactive
AGDLNYRSGLSGRNYARGFT	inactive
AGPKALIVMPKICDGDIWME	inactive
AGSCVMFGPSW	inactive
AGSIGPVRSRGIMLTRLEV	-0.42 ± 1.8
AHFISFNRYHVARFINAHRL	inactive
AIDHSFT	inactive
AIELIFVLWAFAHCAPCFEL	inactive
AIKLC	inactive
AIKYICSFSSVSVMR	inactive
AIKYILRAALNLNSSSTELE	inactive
AIMFLFLYTRGAYAYYLGLL	inactive
AIRLYLDGIHQMHYYHTLCL	inactive
AISYFSSWGAM	0.485 ± 0.24
AKNSKKSMLSVNGDRNDQSF	inactive
AKWLEEKLMPAIDVVPGQWL	inactive
ALCKVMSKLPSISW	inactive
ALFLIFSRELHSNDNLLECS	0.367 ± 0.14

Substance	amyloid nucleation score
ALFSLSWLNQRDSIWVKSDQ	inactive
ALFVGFRF	1.55 ± 0.12
ALIRITRYYLSFTGY	inactive
ALLKD	inactive
ALNIPVTRGTTPAWFLILLD	inactive
ALNLVLLLCVTRRSRLSQSS	inactive
ALNSLYTFMDRNNRELECGL	-0.688 ± 0.88
ALPYCSLVGCYVCKCRLMWL	0.541 ± 0.34
ALSDDTDTQAANQLHGCTGW	inactive
ALSHITDLQFLYSIVFQAHM	-0.674 ± 1.3
ALSSNKSCVQYS	inactive
ALVLNRVLRLDVGVSSGCRL	inactive
ALWNTFFLCENTFRMVGFVC	inactive
ALYERWSTDNVWRRSSQEFL	inactive
AMSTPIGMGEVKFKCFILWL	0.56 ± 0.18
AMTCNDYSRYVF	inactive
AMVRNVYSCLRNRTCFLSSL	inactive
AMVYMMNLEIHVYSIRYA	1.68 ± 0.094
ANCKG	inactive
ANFQWE	inactive
ANIGKIVKEHRQQSIQHCID	inactive
ANSYLTYN	inactive
ANVLKFIWAFVWASVALLWS	inactive
ANYFTPTNCSVRLRWISDPT	inactive

Substance	amyloid nucleation score
ANYVCKNAVYVMQNNGLVH	inactive
APDQLF	inactive
APDVQYFYSLQD	inactive
APLSNFALHIPEELRLESSF	0.176 ± 0.77
APSPPMNFSPCKLDLPCWAI	inactive
APYNFKDYCISGIWSGYIMF	inactive
ARFISVCEHEARLRERTCMC	inactive
ARKLFCQTVEENHS	inactive
ARKMRKAMYLRGTSALVPCL	inactive
ARLRVVIDRCLYRGLSQLQP	inactive
ARPNGTTKCVDNGRKPVRII	inactive
ARQTVPSCTLYYWFLSTVKY	inactive
ARSDVSCPWSGRMATVCLTV	inactive
ASAYSTYKVERLGFDGVQSS	inactive
ASFSMG	inactive
ASHMMQRIMTRQ	-0.308 ± 0.84
ASHRGYRQRRKDVFHGIEA	inactive
ASIHMFVLYRWSFG	0.013 ± 0.75
ASILRTKMLVCKGGKILQLQ	inactive
ASIPGQRYSEPVKPGTCMYV	1.3 ± 0.14
ASLLLTYWVVTEVCRLDLGL	inactive
ASLPVLPSNPDKSEGAKGHE	-0.681 ± 1.2
ASLRCINFMCWLSQTLGVLL	inactive
ASLTYY	inactive

Substance	amyloid nucleation score
ASNSIKWFADHFPHSFVN	inactive
ASQDI	inactive
ASQSSVLPWNS	inactive
ASRAESVVGSFFCFFL	2.17 ± 0.087
ASRTAHVSEVQFGCAPGSER	inactive
ASVMLNFC	inactive
ATFQSRFFCCRSRGGTLGCD	inactive
ATFRMGRKVPWS	1.01 ± 0.23
ATGVMLNDDS	inactive
ATGYGL	inactive
ATMKWFCIKHSFFPIGTCYA	inactive
ATRSLINQQCCRNYASKVLN	inactive
AVATCP	inactive
AVKHHSSTFIFTMGIKLLWL	inactive
AVLSLCINGIVALKGDSGCC	0.478 ± 0.21
AVMNVHFDSSVMEPIDLNRW	inactive
AVNMLESFFGGVPLRSLCFV	inactive
AVPDVKSAKVDLVNFILAVC	inactive
AVTSVSWLIIIDGALRSVKG	inactive
AVVPAFDLLWRNRLITSMTS	inactive
AVVSIVVLRDKRTFLGRLYL	1.53 ± 0.087
AVWNFTQFYAENEGHNVSLS	inactive
AWRKPCWGRVNYFLYIVGAG	2.33 ± 0.088
AWRSMSGVTYPQGTSLPFSK	inactive

Substance	amyloid nucleation score
AWVHLPGQESGYYCCFMNEM	1.63 ± 0.12
AWYFAP	inactive
AYIFIWWKGANKFVSFNKII	0.684 ± 0.27
AYLCGANINL	inactive
AYMYSTILGSMPS	1.44 ± 0.11
AYSRIHSWRMVCKRSNNGVG	1.41 ± 0.1
AYWCG	inactive
AYWSFFPWGLYARLPGTPVV	inactive
CALGEKLFSGSAYMVYPG	inactive
CASSWLF	inactive
CAWVDRYYKKVIGANRGSLS	inactive
CCAGSLLLNRVQV	inactive
CCKSVKFKSLPARN	0.725 ± 0.24
CCLFMLFMRMRTHL	inactive
CCRGRAFVGYLLQIIYVRGR	inactive
CCSRACEFVAVKFNRSSYNL	inactive
CCVGYFYGLEV	2.06 ± 0.064
CDFIDVS	inactive
CDMRP	inactive
CDRLYSNLLRVAAMAPKASW	inactive
CDSLHNDAVYTSLGAWANHP	inactive
CDVQKSLGCHTCWGRDWWNR	inactive
CDWFILKA	inactive
CEVRGCNYTYSVGERCSQN	inactive

Substance	amyloid nucleation score
CFAFGW	inactive
CFAHSLMR	inactive
CFAIYSLLYRVR	1.55 ± 0.074
CFGRLLRTAILNLCNLFFAL	inactive
CFIKSMRVVMVILPFAPCLK	inactive
CFLAENILFSN	0.024 ± 0.64
CFLRKTSNASLIHPSRDTNN	inactive
CFLRWNRFL	0.106 ± 1.1
CFLVNQ	inactive
CFMSNIDIFLDRCMRKGCNH	2.08 ± 0.072
CFPLSVK	inactive
CFPTTSK	inactive
CFSTPCLCQSNELANIGSPT	inactive
CFVGLRSGAVSCWGQGNYVA	inactive
CGDAPRQVVVGPRYKRSMES	-0.193 ± 0.65
CGDLMPNRYTLSSSNTMSNS	inactive
CGFDMY	1.84 ± 0.094
CGGANVLYRVQYDPWRS	inactive
CGIMPLSHGIDLMFVRVTPG	inactive
